# Measurements taken from PMC7471176.
# Columns and labels:
# [1] = biological target: Casein (Hammerstein casein)
# [2] = biological target: Casein (Hammerstein casein); remark: listed apart in the source
substance,measurement,setting,value
"KP-43 alkaline serine protease, wild type (enzyme)","specific caseinolytic activity at pH 7, against that at pH 10 (series pH 6 to 10)",[1],90%
KP-43 Y195I (Tyr195Ile) variant (enzyme),"specific caseinolytic activity at pH 6, against that of the Y195R variant",[2],1.8 fold
KP-43 Y195Q (Tyr195Gln) variant (enzyme),"specific caseinolytic activity at pH 10, against that of the Y195W variant",[2],4.4 fold
